Data reported in publication PMC5584238.

Target: ectodomain of CD147 (CD147^ECT, residues 22-205), wild type (human) (UniProt P35613)

MMP-2 production of fibroblasts co-cultured with K7721-WT cells (full-length WT CD147 on cells) treated with different concentrations of Cu2+ up to 30 uM, gelatin zymography: 2.2 fold
Substance: ectodomain of CD147 (CD147^ECT, residues 22-205), wild type (from UniProt P35613-2 22-205) (domain or fragment)
